Laboratory results: patent US12359199B2, “Regulation of gene expression via aptamer-mediated control of self-cleaving ribozymes” (MEIRAGTX UK II LIMITED, priority 2016, dated 2025)
Changes are numbered by the printed parent chain.

B1: wasp-twister: Twister ribozyme sequence from N. vitripennis cloned into the 3′ UTR in pEGFP-C1 vector (nucleic acid)
DNA: GTGACCGCCGCCGGGATCACTCTCGGCATGGACGAGCTGTACAAGTAAACCGCGGCTTGTAATGCGGCCGTGTAAATAATTTACACGTCGGTCTCAAGCCCGATAAACGCAGAGAGCAAGGCGGCCGCCATACCACATTTGTAGAGGTTTTACTTGCTTTAAAAAACCTCCCACACCTCCCCCTGAACCTGAAACATAAAATGAATGC
modifications: misc_feature 1..208 wasp-twister in pEGFP-C1
B2: wasp-twister Mutant: Cleavage-incapable mutant wasp twister, A6 replaced with G, in 3′ UTR of pEGFP-C1 (nucleic acid)
DNA: B1 DNA with A61G
modifications: misc_feature 1..208 wasp-twister-mut in pEGFP-C1
notes: Cleavage-incapable mutant wasp twister, A6 replaced with G, in 3′ UTR of pEGFP-C1
B3: GFP_wasp_no Sac 3HP: GFP wasp-twister construct with SacII site replaced by CGC creating 3 base pair stem (3HP) at P1 stem (nucleic acid)
DNA: GTGACCGCCGCCGGGATCACTCTCGGCATGGACGAGCTGTACAAGTAAACGCCTTGTAATGCGGCCGTGTAAATAATTTACACGTCGGTCTCAAGCCCGATAAACGCAGAGAGCAAGGCGGCCGCCATACCACATTTGTAGAGGTTTTACTTGCTTTAAAAAACCTCCCACACCTCCCCCTGAACCTGAAACATAAAATGAATGC
modifications: misc_feature 1..205 wasp_no Sac 3HP in pEGFP-C1
notes: GFP wasp-twister construct with SacII site replaced by CGC creating 3 base pair stem (3HP) at P1 stem
B4: GFP_wasp_no Sac 0HP: GFP wasp-twister construct with SacII sequence at 5′ end of twister deleted (nucleic acid)
DNA: GTGACCGCCGCCGGGATCACTCTCGGCATGGACGAGCTGTACAAGTAAACTTGTAATGCGGCCGTGTAAATAATTTACACGTCGGTCTCAAGCCCGATAAACGCAGAGAGCAAGGCGGCCGCCATACCACATTTGTAGAGGTTTTACTTGCTTTAAAAAACCTCCCACACCTCCCCCTGAACCTGAAACATAAAATGAATGC
modifications: misc_feature 1..202 wasp_no Sac 0HP in pEGFP-C1
B5: es-twister: Twister ribozyme sequence from environmental sample cloned into the 3′ UTR in pEGFP-C1 vector (nucleic acid)
DNA: GTGACCGCCGCCGGGATCACTCTCGGCATGGACGAGCTGTACAAGTAAACCGCGGCAATAAAGCGGTTACAAGCCCGCAAAAATAGCAGAGTAATGTCGCGATAGCGCGGCATTAATGCAGCTTTATTGGCGGCCGCCATACCACATTTGTAGAGGTTTTACTTGCTTTAAAAAACCTCCCACACCTCCCCCTGAACCTGAAACATAAAATGAATGC
modifications: misc_feature 1..217 es-twister in pEGFPC1

System: GFP expression in HEK 293 cells
Assay: GFP fluorescence intensity of transfected HEK 293 cells
Format: cell-based
Settings: ribozyme in 3′ UTR of EGFP; for fold reduction (suppression) of GFP expression / reduction (inhibition/suppression) of GFP expression: compared to pEGFP-C1 control
From the text: Plasmid constructs: oligonucleotides containing wild type or mutant twister ribozyme sequences, either from Nasonia Vitripennis (wasp) or from environmental samples, flanked by BsrGI and MfeI sites, were synthesized (IDT). The synthesized oligonucleotides (“oligos”) were digested with BsrGI and MfeI and cloned into pEGFP-C1 (Clontech) digested with the compatible restriction enzymes. The sequences of the constructed vectors were verified by DNA sequencing (Genewiz).
Transfection and measurement of GFP fluorescence: 3.5×10^4 HEK 293 cells were plated in a 96-well flat bottom plate the day before transfection. Plasmid DNA (500 ng) was added to a tube or a 96-well U-bottom plate. Separately, TransIT-293 reagent (Mirus; 1.4 μl) was added to 50 μl Opti-mem I media (Life Technologies), and allowed to sit for 5 minutes at room temperature (“RT”). Then, 50 μl of this diluted transfection reagent was added to the DNA, mixed, and incubated at RT for 20 min. Finally, 7 μl of this solution was added to a well of cells in a 96-well plate. […] GFP fluorescence intensity was measured by Tecan plate reader, using Excitation wavelength at 484 nm, Emission wavelength at 510 nm and Excitation bandwidth at 5 nm. The GFP fluorescence intensity was expressed as the value generated by GFP constructs subtracted by the value generated by LacZ construct.
Measurement of GFP fluorescence intensity was performed as described in Example 1.

Row | Molecule | effect on GFP expression (in words) | fold reduction (suppression) of GFP expression [fold] | reduction (inhibition/suppression) of GFP expression | also measured
1 | B1 | reduced expression of GFP | 36 | 97% | fold reduction (suppression) of GFP expression (listed as GFP-twister): 37 fold; fold reduction (suppression) of GFP expression (listed as Wasp-twister): ~36 fold; reduction (inhibition/suppression) of GFP expression (listed as Wasp-twister): approximately 97%; fold reduction (suppression) of GFP expression (listed as wild type twister ribozyme): 44 fold
2 | B2 | did not cause a reduction in GFP expression |  |  | effect on GFP expression (in words) (listed as A6G mutation): completely abolished the suppression in GFP expression
3 | B3 |  | 104 |  | 
4 | B4 |  | 68 |  | 
5 | B5 | significantly reduced target gene expression |  | about 50% | 
